T1: CD39 mutant 15 (human, UniProt P49961 1-510)
T1 construct: Expressed on Hek-293T cells; also called M15
T1 chain: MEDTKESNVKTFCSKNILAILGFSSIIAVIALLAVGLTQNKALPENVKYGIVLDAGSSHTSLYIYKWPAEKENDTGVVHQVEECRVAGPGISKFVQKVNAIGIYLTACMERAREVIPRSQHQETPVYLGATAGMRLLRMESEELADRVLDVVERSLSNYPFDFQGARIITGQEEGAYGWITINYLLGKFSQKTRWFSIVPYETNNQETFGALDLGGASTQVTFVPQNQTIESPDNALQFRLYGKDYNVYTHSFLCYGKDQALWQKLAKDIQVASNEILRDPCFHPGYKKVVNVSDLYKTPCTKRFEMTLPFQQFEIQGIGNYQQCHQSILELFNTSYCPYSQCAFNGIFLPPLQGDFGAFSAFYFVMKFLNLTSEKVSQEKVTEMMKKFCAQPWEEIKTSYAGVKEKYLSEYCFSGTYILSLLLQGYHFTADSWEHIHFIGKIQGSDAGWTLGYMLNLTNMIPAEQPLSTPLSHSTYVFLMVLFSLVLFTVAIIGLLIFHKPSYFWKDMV

T2: CD39 mutant 19 (human, UniProt P49961 1-510)
T2 construct: Expressed on Hek-293T cells; also called M19
T2 chain: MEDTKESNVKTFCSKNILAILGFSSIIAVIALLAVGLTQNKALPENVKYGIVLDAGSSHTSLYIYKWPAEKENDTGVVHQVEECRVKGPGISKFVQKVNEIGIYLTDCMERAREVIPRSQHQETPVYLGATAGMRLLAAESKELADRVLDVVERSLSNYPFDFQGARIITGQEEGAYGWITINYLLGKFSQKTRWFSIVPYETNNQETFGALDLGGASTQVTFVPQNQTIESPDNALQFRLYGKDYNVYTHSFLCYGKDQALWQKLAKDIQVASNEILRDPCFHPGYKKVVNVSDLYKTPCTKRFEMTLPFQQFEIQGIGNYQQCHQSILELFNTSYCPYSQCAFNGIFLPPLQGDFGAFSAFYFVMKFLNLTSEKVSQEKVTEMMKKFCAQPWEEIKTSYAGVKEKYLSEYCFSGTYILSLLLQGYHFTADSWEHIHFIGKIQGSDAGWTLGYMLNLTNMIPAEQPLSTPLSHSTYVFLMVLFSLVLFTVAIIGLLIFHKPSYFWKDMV

T3: CD39 mutant 5 (human, UniProt P49961 1-510)
T3 construct: Expressed on Hek-293T cells; also called M5
T3 chain: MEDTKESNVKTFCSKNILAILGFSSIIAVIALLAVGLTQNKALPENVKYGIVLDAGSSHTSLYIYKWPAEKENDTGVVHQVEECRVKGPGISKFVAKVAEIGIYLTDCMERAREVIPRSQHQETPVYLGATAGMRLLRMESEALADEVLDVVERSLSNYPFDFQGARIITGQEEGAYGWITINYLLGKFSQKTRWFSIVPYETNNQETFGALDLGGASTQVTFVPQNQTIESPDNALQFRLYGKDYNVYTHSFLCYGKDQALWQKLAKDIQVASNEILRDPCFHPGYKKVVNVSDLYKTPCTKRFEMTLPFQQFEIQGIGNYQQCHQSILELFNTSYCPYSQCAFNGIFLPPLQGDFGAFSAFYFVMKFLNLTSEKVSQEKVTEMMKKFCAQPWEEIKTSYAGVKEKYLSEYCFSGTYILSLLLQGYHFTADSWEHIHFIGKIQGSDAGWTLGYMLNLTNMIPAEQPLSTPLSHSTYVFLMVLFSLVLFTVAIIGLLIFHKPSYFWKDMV

T4: CD39 mutant 11 (human, UniProt P49961 1-510)
T4 construct: Expressed on Hek-293T cells
T4 sequence: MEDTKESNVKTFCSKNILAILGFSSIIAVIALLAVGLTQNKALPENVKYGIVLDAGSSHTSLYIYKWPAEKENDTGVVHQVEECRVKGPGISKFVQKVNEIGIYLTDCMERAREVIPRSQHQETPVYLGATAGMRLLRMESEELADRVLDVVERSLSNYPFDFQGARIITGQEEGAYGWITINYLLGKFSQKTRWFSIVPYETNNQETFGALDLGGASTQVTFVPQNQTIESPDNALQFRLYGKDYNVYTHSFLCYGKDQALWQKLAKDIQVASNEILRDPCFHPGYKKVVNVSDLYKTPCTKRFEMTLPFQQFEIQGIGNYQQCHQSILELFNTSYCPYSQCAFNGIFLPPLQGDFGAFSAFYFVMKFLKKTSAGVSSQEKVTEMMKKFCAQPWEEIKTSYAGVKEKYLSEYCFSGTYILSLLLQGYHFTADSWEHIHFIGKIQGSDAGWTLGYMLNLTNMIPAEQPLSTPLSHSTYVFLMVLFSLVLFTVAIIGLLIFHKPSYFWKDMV


Columns and labels:
CD39 mutant 15 [1] = molecular target: T1, CD39 mutant 15; assay: flow cytometry, Hek-293T cells transfected with CD39 mutant 15 (panel M15), table under the panel; unstained (US) 8,98; antibody concentration not shown
Description: (§1) Mutants were transfected in Hek-293T cells, as shown in the table 1, using numbering of SEQ ID NO: 2. […] Mutant 19 includes substitutions at residues R138, M139 and E142.
(§2) Mutants were transfected in Hek-293T cells, as shown in the table 1, using numbering of SEQ ID NO: 2. Dose-ranges of test antibodies (10-2.5-0.625-0.1563-0.0391-0.0098-0.0024-0.0006 μg/ml) are tested on the 20 generated mutants by flow cytometry.

CD39 mutant 19 [2] = molecular target: T2, CD39 mutant 19; assay: flow cytometry, Hek-293T cells transfected with CD39 mutant 19 (panel M19), Comp-Alexa Fluor 647-A
CD39 mutant 15 [3] = molecular target: T1, CD39 mutant 15; assay: flow cytometry, Hek-293T cells transfected with CD39 mutant 15 (panel M15); antibody concentration not shown
CD39 mutant 5 [4] = molecular target: T3, CD39 mutant 5; assay: flow cytometry, Hek-293T cells transfected with CD39 mutant 5 (panel M5), Comp-Alexa Fluor 647-A
Description: as §1, §2

CD39 mutant 5 [5] = molecular target: T3, CD39 mutant 5; assay: flow cytometry, Hek-293T cells transfected with CD39 mutant 5 (panel M5); antibody concentration not shown
CD39 mutant 19 [6] = molecular target: T2, CD39 mutant 19; assay: flow cytometry, Hek-293T cells transfected with CD39 mutant 19 (panel M19); antibody concentration not shown
Description: as §1, §2

CD39 mutant 11 = molecular target: T4, CD39 mutant 11; assay: flow cytometry, Hek-293T cells expressing mutant 11
CD39 mutant 19 [7] = molecular target: T2, CD39 mutant 19; assay: flow cytometry, Hek-293T cells expressing mutant 19
CD39 mutant 5 [8] = molecular target: T3, CD39 mutant 5; assay: flow cytometry, Hek-293T cells expressing mutant 5
CD39 mutant 15 [9] = molecular target: T1, CD39 mutant 15; assay: flow cytometry, Hek-293T cells expressing mutant 15

| Binder | Median : Comp-Alexa Fluor 647-A (CD39 mutant 15 [1]) | binding result (CD39 mutant 19 [2]) | binding result (CD39 mutant 15 [3]) | binding result (CD39 mutant 5 [4]) | binding result (CD39 mutant 5 [5]) | binding result (CD39 mutant 19 [6]) | binding result (CD39 mutant 11) | binding result (CD39 mutant 19 [7]) | binding result (CD39 mutant 5 [8]) | binding result (CD39 mutant 15 [9]) |
| --- | --- | --- | --- | --- | --- | --- | --- | --- | --- | --- |
| antibody I-396 (antibody, V domains shown, Hybridoma antibody purified with protein A) VH: EVQLQQSGAELVKPGASVKLSCIVSGFNIKDTYINWVKQRPEQGLEWIGRIDPANGNTKYDPKFQGKATMTSDTSSNTAYLHLSSLTSDDSAVYYCARWGYDDEEADYFDSWGQGTTLTVSS VL: not shown | 35.9 | binds | no binding | binds |  |  |  |  |  |  |
| antibody I-395 (antibody, V domains shown, Hybridoma antibody purified with protein A) VH: EVQLQQSGPELVKPGASVRMSCKASGYTFTDYNMHWVKKNHGKGLEWIGYINPNNGGTTYNQKFKGKATLTVNTSSKTAYMELRSLTSEDSAVYYCTRGGTRFASWGQGTLVTVSA VL: not shown | 5750 |  |  |  | no binding | no binding |  |  |  |  |
| antibody I-399 (antibody, V domains shown, Hybridoma antibody purified with protein A) VH: PVQLQQPGAEVVMPGASVKLSCKASGYTFTSFWMNWMRQRPGQGLEWIGEIDPSDFYTNSNQRFKGKATLTVDKSSSTAYMQLSSLTSEDSAVYFCARGDFGWYFDVWGTGTSVTVSS VL: EIVLTQSPTTMTSSPGEKITFTCSASSSINSNYLHWYQQKPGFSPKLLIYRTSNLASGVPTRFSGSGSGTSYSLTIGTMEAEDVATYYCQQGSSLPRTFGGGTKLEIK |  |  |  |  |  |  | no binding (tested: dose range up to 10 µg/ml) | binds | binds | binds |

From patent publication US20190218308A1 (INNATE PHARMA, published 2019)
